Laboratory results as given in US20090028851A1 (MAXPLANCK GESELLSCHAFT ZUR F RDERUNG DER WISSENSCH, published 2009).
Each block holds one binder with its values, some of them ahead of it. Where no end group is shown, it is not given here.

Tests used:
[1] = biological target: T1, SPOT peptide 6, MGDYEIFDEDTKT (also: covalently bound to a cellulose SPOT membrane); experiment: SPOT peptide membrane, ECL
T1 construct: also called spot 6
T1 peptide: MGDYEIFDEDTKT

[2] = biological target: T2, SPOT peptide 3, HHHSSGMGDYEIF (also: covalently bound to cellulose SPOT membrane); experiment: SPOT peptide membrane, ECL
T2 construct: holds residues of the immunogen's His tag; also called spot 3
T2 peptide: HHHSSGMGDYEIF

[3] = biological target: T3, SPOT peptide 4, HSSGMGDYEIFDE (also: covalently bound to cellulose SPOT membrane); experiment: SPOT peptide membrane, ECL
T3 construct: also called spot 4
T3 peptide: HSSGMGDYEIFDE

[4] = biological target: T4, SPOT peptide 8, EIFDEDTKTIRNN; experiment: SPOT peptide membrane, ECL
T4 construct: also called spot 8
T4 peptide: EIFDEDTKTIRNN

[5] = biological target: T5, SPOT peptide 7, DYEIFDEDTKTIR (also: covalently bound to a cellulose SPOT membrane); experiment: SPOT peptide membrane, ECL
T5 construct: also called spot 7
T5 peptide: DYEIFDEDTKTIR

[6] = biological target: T6, SPOT peptide 5, SGMGDYEIFDEDT (also: covalently bound to a cellulose SPOT membrane); experiment: SPOT peptide membrane, ECL
T6 construct: also called spot 5
T6 peptide: SGMGDYEIFDEDT

[7] = biological target: T7, rat Eag1 (rat brain sections, hippocampus and cerebellum) (rat, UniProt Q63472 1-962); experiment: immunohistochemistry on rat brain sections (hippocampus, cerebellum)
T7 construct: whole, on cells; Native protein in fixed tissue sections (immunohistochemistry)
T7 sequence (looked up): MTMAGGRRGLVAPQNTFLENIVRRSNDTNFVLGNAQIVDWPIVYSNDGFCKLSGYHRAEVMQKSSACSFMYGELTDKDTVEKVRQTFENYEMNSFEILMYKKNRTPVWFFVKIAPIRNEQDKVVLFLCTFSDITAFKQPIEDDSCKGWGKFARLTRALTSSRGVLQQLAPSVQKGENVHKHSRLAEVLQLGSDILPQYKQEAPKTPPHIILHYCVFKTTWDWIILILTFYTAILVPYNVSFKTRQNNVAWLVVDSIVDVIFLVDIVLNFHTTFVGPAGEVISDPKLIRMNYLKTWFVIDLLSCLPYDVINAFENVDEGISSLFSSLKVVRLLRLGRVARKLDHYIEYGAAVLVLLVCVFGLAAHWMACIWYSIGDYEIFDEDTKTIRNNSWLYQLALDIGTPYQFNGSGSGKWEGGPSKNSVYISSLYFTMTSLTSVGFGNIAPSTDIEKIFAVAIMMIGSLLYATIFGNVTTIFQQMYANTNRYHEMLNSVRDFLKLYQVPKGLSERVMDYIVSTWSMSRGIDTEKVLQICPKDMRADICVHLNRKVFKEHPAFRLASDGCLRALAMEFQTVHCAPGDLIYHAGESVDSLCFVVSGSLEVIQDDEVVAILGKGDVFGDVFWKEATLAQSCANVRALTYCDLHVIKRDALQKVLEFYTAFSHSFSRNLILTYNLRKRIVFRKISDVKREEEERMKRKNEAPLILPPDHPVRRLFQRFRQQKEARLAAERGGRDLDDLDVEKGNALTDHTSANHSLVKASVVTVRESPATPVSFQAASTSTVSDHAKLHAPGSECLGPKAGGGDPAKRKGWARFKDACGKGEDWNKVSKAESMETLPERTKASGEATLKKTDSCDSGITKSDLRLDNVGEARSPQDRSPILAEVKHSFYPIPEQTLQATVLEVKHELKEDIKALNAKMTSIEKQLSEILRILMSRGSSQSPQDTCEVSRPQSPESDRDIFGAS

[8] = biological target: T8, SPOT peptide 22, FNGSGSGKWEGGP; experiment: SPOT peptide membrane, ECL
T8 construct: also called spot 22
T8 peptide: FNGSGSGKWEGGP

[9] = biological target: T9, SPOT peptide 21, YQFNGSGSGKWEG; experiment: SPOT peptide membrane, ECL
T9 construct: also called spot 21
T9 peptide: YQFNGSGSGKWEG

[10] = biological target: T10, SPOT peptide 23, GSGSGKWEGGPSK; experiment: SPOT peptide membrane, ECL
T10 construct: also called spot 23
T10 peptide: GSGSGKWEGGPSK

[11] = biological target: T11, SPOT peptide 24, GSGKWEGGPSKNS; experiment: SPOT peptide membrane, ECL
T11 construct: also called spot 24
T11 peptide: GSGKWEGGPSKNS

[12] = biological target: Eag1 ion channel expressed in cells (Eag1 overexpressing CHO K1 cells; Eag1-expressing oocytes; transfected HEK293 cells) (UniProt O95259); experiment: cell-based or functional assay

binding result [1]: binds
binding result [2]: binds
binding result [3]: binds
binding result [4]: binds
binding result [5]: binds
binding result [6]: binds
binding result [7]: binds
B1: mouse monoclonal anti-Eag1 antibody ImAb4 (antibody, mouse IgG2b, kappa, V domains shown)
VH: DVQLQESGPGLVKPSQSLSLTCTVTGYSITSDYAWNWIRQFPGNKLEWMGYISYSGSTIYNPSLKSRISITRDTSKNQFFLQLNSVTTEDTATYYCARFGNYGNTLNYWGQGTSVTVSS
VL: DVVMTQTPLSLPVSLGDQASISCRSSQSLVHSNGNTYLHWYLQKPGQSPKLLIYKVSNRFSGVPDRFSGSGSGTDFTLKISRVEAEDLGVYFCSQSTHVPPTFGGGTKLEIKR
notes: Murine IgG2b / kappa

binding result [8]: binds
binding result [9]: binds
binding result [10]: binds
binding result [11]: binds
current inhibition, whole cell patch clamp on transfected HEK293 cells, 300 nM antibody [12]: 35%
B2: mouse monoclonal anti-Eag1 antibody ImAb3 (antibody, mouse IgG2b, kappa, V domains shown)
VH: EVKLVESGGGLVQPGGSLRLSCATSGFTFTDYYMSWVRQPPGKALEWLGFIRNKATGYTTEYSASVKGRFTISRDNSQSILYLQMNTLRAEDSATYYCARDFGSRWYFDVWGAGTTVTVSS
VL: DIVMSQSPSSLAVSAGEKVTMSCKSSQSLLNSRTRKNYLAWYQQKPGQSPKLLIYWASTRESGVPDRFTGSGSGTDFTLTISSVQAEDLAVYYCKQSYDLRTFGGGTKLEIKR
notes: Murine IgG2b / kappa
